Experimental data taken from the supplement of paper PMC10065799, “High-throughput profiling of sequence recognition by tyrosine kinases and SH2 domains using bacterial peptide display” (eLife, 2023).

Experiments:
c-Src SH2 = assay: SH2 binding enrichment of the phosphorylated peptide, bacterial display (enrichment ratio); higher = better substrate or ligand; peptides without Tyr show the background
SHP2-C SH2 = assay: as above
Grb2 SH2 = Grb2 SH2 (UniProt P62993); assay: as above
c-Abl (mouse) = assay: phosphorylation enrichment, bacterial display (enrichment ratio); higher = better substrate or ligand; peptides without Tyr show the background
Jak2 = Jak2 (UniProt O60674); assay: as above
Chain of Jak2 (O60674 whole entry, looked up): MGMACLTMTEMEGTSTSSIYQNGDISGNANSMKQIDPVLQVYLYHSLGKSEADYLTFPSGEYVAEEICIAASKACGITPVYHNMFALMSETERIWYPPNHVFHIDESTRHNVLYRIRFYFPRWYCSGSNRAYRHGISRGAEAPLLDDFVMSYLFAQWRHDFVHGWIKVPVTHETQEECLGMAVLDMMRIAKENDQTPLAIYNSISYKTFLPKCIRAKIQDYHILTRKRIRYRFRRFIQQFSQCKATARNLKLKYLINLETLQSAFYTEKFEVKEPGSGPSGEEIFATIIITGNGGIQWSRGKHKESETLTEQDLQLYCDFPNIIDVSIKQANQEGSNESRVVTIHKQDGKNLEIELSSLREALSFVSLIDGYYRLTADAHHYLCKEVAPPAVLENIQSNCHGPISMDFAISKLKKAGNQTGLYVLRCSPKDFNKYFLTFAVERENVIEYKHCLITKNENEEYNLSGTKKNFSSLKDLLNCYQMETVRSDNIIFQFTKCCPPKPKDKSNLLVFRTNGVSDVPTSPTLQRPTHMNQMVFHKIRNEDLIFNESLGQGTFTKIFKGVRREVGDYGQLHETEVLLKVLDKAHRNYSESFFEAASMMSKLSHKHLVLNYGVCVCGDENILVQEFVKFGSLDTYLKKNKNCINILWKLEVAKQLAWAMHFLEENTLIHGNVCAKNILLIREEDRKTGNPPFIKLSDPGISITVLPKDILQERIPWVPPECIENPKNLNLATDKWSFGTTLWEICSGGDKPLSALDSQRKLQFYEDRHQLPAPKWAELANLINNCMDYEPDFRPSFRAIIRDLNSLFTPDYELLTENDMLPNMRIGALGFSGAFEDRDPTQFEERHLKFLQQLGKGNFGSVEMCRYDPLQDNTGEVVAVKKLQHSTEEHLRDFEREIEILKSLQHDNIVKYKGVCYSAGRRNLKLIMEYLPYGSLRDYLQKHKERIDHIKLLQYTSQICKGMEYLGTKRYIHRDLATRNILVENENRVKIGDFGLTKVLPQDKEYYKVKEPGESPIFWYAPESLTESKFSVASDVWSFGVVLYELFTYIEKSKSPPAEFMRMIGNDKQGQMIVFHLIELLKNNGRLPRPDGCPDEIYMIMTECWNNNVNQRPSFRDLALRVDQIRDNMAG

c-Src = assay: as above
FGFR3 = FGFR3 (UniProt P22607); assay: as above
FGFR1 = FGFR1 (UniProt P11362); assay: as above
Fyn = Fyn (UniProt P06241); assay: as above
Chain of Fyn (P06241 whole entry, looked up): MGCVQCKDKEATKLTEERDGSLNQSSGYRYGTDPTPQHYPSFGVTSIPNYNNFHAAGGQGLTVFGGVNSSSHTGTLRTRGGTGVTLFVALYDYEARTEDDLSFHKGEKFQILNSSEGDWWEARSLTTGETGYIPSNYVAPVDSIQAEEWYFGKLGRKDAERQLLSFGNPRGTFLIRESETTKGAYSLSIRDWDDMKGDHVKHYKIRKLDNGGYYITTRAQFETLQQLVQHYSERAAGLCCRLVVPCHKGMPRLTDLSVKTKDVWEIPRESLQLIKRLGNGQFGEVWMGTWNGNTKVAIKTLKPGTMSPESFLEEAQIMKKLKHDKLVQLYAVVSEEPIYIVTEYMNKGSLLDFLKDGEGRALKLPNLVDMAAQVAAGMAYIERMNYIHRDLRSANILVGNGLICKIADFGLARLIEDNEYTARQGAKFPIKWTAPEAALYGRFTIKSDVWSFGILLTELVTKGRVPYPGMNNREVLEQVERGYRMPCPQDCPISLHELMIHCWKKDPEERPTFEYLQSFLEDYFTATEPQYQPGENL

Fes = Fes (UniProt P07332); assay: as above
Fer (mouse) = assay: as above
Hck = Hck (UniProt P08631); assay: as above
Chain of Hck (P08631 whole entry, looked up): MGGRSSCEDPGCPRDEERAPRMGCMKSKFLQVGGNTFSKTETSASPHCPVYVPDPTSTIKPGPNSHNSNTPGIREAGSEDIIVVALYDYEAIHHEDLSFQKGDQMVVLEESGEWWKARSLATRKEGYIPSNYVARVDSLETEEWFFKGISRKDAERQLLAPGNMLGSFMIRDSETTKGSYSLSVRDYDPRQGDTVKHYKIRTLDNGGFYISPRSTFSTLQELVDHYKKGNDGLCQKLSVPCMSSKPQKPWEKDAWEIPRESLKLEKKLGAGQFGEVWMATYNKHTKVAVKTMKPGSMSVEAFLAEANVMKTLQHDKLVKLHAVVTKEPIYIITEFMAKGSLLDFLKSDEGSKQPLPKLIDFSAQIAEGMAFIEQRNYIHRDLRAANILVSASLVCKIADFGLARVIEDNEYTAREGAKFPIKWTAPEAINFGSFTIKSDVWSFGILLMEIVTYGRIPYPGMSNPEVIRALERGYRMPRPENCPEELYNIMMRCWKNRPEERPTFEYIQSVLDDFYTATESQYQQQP

MERTK = MERTK (UniProt Q12866); assay: as above
Chain of MERTK (Q12866 whole entry, looked up): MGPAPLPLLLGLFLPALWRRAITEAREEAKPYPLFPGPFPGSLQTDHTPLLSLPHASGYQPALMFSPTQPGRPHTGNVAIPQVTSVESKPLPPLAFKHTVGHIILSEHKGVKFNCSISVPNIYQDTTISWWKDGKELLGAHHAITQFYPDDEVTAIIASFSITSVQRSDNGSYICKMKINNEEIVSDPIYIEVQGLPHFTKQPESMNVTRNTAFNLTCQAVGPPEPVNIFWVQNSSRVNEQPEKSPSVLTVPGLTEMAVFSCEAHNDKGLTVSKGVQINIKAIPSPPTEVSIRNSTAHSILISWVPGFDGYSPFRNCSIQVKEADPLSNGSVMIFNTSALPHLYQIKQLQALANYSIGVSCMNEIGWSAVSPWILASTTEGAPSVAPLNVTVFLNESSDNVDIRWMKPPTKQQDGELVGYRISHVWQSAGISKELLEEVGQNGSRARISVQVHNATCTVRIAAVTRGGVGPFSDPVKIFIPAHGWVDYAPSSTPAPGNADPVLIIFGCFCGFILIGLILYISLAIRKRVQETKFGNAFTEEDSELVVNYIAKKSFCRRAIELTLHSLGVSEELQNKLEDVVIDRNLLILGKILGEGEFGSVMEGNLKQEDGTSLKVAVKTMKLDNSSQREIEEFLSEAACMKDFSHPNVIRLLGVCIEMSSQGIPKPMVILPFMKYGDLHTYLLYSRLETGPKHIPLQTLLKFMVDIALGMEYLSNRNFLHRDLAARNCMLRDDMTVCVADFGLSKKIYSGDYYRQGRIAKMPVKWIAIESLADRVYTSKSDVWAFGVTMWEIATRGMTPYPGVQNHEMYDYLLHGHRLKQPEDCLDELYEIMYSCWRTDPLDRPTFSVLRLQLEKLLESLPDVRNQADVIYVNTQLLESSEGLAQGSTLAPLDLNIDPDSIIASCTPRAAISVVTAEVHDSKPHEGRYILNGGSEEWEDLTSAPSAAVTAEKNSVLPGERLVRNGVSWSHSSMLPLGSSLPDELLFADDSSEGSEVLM

EPHB2 = EPHB2 (UniProt P29323); assay: as above
Chain of EPHB2 (P29323 whole entry, looked up): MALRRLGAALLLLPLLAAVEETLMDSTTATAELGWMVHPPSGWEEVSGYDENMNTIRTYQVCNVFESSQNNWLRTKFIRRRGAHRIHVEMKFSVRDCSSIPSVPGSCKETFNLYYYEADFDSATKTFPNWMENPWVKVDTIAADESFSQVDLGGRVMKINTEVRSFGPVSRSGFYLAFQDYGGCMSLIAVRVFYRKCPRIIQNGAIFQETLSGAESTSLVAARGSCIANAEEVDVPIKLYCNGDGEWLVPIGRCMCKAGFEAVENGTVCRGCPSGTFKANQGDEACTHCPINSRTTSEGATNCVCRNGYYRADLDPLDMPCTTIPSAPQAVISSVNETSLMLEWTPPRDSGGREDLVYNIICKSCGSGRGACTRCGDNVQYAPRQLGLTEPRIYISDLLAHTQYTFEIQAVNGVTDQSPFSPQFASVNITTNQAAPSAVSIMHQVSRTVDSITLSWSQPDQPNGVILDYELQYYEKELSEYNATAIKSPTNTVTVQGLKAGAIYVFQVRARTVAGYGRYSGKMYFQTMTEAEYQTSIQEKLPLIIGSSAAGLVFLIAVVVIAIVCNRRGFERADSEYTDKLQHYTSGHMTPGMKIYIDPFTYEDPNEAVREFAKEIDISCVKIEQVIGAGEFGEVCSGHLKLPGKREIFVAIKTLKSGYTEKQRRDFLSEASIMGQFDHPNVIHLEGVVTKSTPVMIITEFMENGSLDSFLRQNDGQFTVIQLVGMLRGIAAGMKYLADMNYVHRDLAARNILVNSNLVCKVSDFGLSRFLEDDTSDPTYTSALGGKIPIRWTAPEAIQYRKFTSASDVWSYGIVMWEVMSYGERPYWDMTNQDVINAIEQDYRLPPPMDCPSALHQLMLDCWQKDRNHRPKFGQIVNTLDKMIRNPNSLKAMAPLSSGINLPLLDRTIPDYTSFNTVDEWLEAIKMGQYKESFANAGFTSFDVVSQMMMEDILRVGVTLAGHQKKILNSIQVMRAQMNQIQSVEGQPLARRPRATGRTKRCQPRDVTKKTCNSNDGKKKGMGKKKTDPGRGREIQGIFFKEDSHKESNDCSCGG

AncSZ = assay: as above
EPHB1 = EPHB1 (UniProt P54762); assay: as above
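For SH2 binding enrichment of the phosphorylated peptide, bacterial display in this document: peptide library displayed on the E. coli surface as eCPX fusions, selected cells deep-sequenced, score is each peptide's frequency after selection divided by its frequency in the input.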
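For phosphorylation enrichment, bacterial display in this document: 11-residue human phosphosite peptides and single-mutation variants displayed on the E. coli surface, counted by deep sequencing, each peptide's frequency after selection divided by its frequency in the unselected input library; frequency after pTyr selection over input frequency; kinase dosed for 20-30% of maximal phosphorylation in three min.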

Chain of Grb2 SH2 (P62993 whole entry, looked up): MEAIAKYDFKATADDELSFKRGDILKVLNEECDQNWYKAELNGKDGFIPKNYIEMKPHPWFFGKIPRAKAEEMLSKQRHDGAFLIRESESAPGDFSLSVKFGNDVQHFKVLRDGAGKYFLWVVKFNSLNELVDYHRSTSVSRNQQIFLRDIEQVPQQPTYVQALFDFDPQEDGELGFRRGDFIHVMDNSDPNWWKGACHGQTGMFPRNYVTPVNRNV

Sequence	SH2 binding enrichment (c-Src SH2)	SH2 binding enrichment (SHP2-C SH2)	SH2 binding enrichment (Grb2 SH2)	phosphorylation enrichment (c-Abl (mouse))	phosphorylation enrichment (Jak2)	phosphorylation enrichment (c-Src)	phosphorylation enrichment (FGFR3)	phosphorylation enrichment (FGFR1)	phosphorylation enrichment (Fyn)	phosphorylation enrichment (Fes)	phosphorylation enrichment (Fer (mouse))	phosphorylation enrichment (Hck)	phosphorylation enrichment (MERTK)	phosphorylation enrichment (EPHB2)	phosphorylation enrichment (AncSZ)	phosphorylation enrichment (EPHB1)
LHQSTYQRFDV [SLC7A14_Y693_YF]	0.897	0.635	1.03	0.838	0.652	2.69	1.18	1.14	1.83	1.32	0.955	1.77	1.19	1.17	1.31	1.45
TLSGIYQYSIA [FOXL2_Y81_I84S]	1.93	1.83	0.814	1.53	0.65	4.21	1.03	0.952	4.22	0.899	8.33	3.56	6.7	1.98	1.24	2.73
ATDLAYYLVCK [ASL_Y375_R379C]	0.59	0.505	0.803	1.04	2.82	1.06	3.06	3.43	0.852	1.77	0.696	1.02	0.884	0.885	2.13	1.08
RREWYYEVIIV [BACE1_Y260]	0.545	0.75	0.873	0.771	0.389	0.635	2.03	2.85	0.571	0.751	0.835	0.718	0.832	0.725	0.874	0.516
IINENYDYLKG [NUP98_Y1664]	0.728	0.812	0.751	0.649	0.803	0.469	0.518	0.535	0.406	0.871	0.401	1.07	0.491	0.707	0.846	0.657
CHSDDYVHISI [TSC1_Y406_L411I]	0.575	0.723	0.811	0.879	1.07	0.524	1.29	1.65	0.532	1.39	0.597	0.573	0.457	0.67	1.65	0.898
SVNIRYLLFPS [SERAC1_Y548]	1.38	1.67	1.72	0.817	1.25	0.463	0.929	0.574	0.47	1.36	0.469	0.558	0.46	0.634	1.08	0.714
NRSSLYLVAGP [KIAA1614_Y1083]	0.543	0.92	0.756	0.642	0.698	0.434	0.607	0.556	0.534	0.91	0.495	0.619	1.09	0.517	0.915	0.591
WKGSWYSMRKM [FGB_Y475]	1.97	1.48	1.78	0.71	0.847	0.538	0.716	0.676	0.49	1.11	0.473	0.523	0.499	0.513	1.07	0.588
VISNAYVDLSP [HSD17B4_Y602_A606S]	3.09	0.753	0.593	0.711	0.829	0.525	0.62	0.896	0.534	0.818	0.511	0.542	0.518	0.523	1.11	0.443
YSIDHYLGKEM [G6PD_Y202_R198S]	0.577	0.781	0.72	0.555	0.828	0.538	0.617	0.589	0.568	0.671	0.455	0.563	1.3	0.561	0.773	0.509
RGSQQYRALTV [TUBB8_Y281]	0.535	0.919	1.04	0.84	0.77	0.594	0.364	0.428	0.325	0.633	0.584	0.866	0.516	0.518	0.862	0.368
EKGEEYGGGGG [TUBA1A_Y451_E447K]	0.51	0.729	0.911	0.384	0.578	0.293	0.67	0.578	0.448	0.855	0.499	0.63	0.296	0.574	0.847	0.585
IKGNMYFENSF [EGFR_Y112_R108K_YF]	0.619	0.784	0.932	0.897	1.02	0.657	0.677	0.516	0.533	0.951	0.471	0.397	0.539	0.446	0.991	0.589
PDDPDYSLVDD [PSTPIP2_Y323_N322D]	0.665	0.576	0.642	1.04	2.02	0.648	1.01	0.568	0.569	1.97	0.894	0.707	0.668	0.963	1.76	1.13
VMSGPYELKAL [IL1B_Y140]	0.533	1.52	0.92	0.481	0.463	0.873	0.57	0.419	0.564	0.622	0.447	0.491	0.351	0.512	0.51	0.303
